The results in this text go back to the supplement of paper PMC9112550, “Optimization of the antimicrobial peptide Bac7 by deep mutational scanning” (BMC Biology, 2022).

The test system of the data set is Escherichia coli TOP10. Kind of data set: shrunken log2 fold change of peptide-encoding DNA abundance (4.5 h post-induction vs induction); higher = less antimicrobial activity (less host growth inhibition). Conditions: time post-induction: 4.5 h; library: site-saturation at positions 5, 18, 19, 20.
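Also: peptides expressed intracellularly from a pBAD plasmid library in pooled LB shake-flask culture, induced with 0.3% L-arabinose, DNA abundance read by NGS, three biological replicates, DESeq2 with apeglm shrinkage.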

Consider RRIRYRPPRLPRPRPRPGYIPRP, for which the “shrunken log2 fold change” value is -0.0964.

Take RRIRWRPPRLPRPRPRPKGNPRP: the “shrunken log2 fold change” value is 0.514.

Consider RRIRYRPPRLPRPRPRPKATPRP, for which the “shrunken log2 fold change” value is -0.00674.

With RRIRERPPRLPRPRPRPVDQPRP, the “shrunken log2 fold change” value amounted to 0.0107.

RRIRGRPPRLPRPRPRPLEFPRP: the “shrunken log2 fold change” value stood at 0.319.

RRIRNRPPRLPRPRPRPDEYPRP: the “shrunken log2 fold change” value turned out to be 0.00318.

On to RRIRKRPPRLPRPRPRPPALPRP, for which the “shrunken log2 fold change” value is 0.57.

With RRIRFRPPRLPRPRPRPVWIPRP, the “shrunken log2 fold change” value was -0.0471.

On to RRIRSRPPRLPRPRPRPSAFPRP, for which the “shrunken log2 fold change” value was -0.0159.

For the sequence RRIRERPPRLPRPRPRPSERPRP, the “shrunken log2 fold change” value was -0.239.

Take RRIRMRPPRLPRPRPRPWDPPRP: the “shrunken log2 fold change” value amounted to 0.287.

For RRIRGRPPRLPRPRPRPMWIPRP, the “shrunken log2 fold change” value is 0.218.

RRIRVRPPRLPRPRPRPGFIPRP: the “shrunken log2 fold change” value was -0.202.

RRIRDRPPRLPRPRPRPTLKPRP: the “shrunken log2 fold change” value is -0.0215.

Consider RRIRQRPPRLPRPRPRPWRWPRP, for which the “shrunken log2 fold change” value is -0.0392.

RRIRPRPPRLPRPRPRPMPHPRP: the “shrunken log2 fold change” value is -0.169.

In the case of RRIRERPPRLPRPRPRPWYPPRP, the “shrunken log2 fold change” value is -0.224.

Take RRIRIRPPRLPRPRPRPIVLPRP: the “shrunken log2 fold change” value is -0.181.

On to RRIRMRPPRLPRPRPRPMTRPRP, for which the “shrunken log2 fold change” value was 0.118.

Take RRIRWRPPRLPRPRPRPWCRPRP: the “shrunken log2 fold change” value is -0.000362.

RRIRCRPPRLPRPRPRPIQGPRP: the “shrunken log2 fold change” value was -0.0195.

For RRIRSRPPRLPRPRPRPHGKPRP, the “shrunken log2 fold change” value is -0.18.

Turning to RRIRSRPPRLPRPRPRPPNAPRP, the “shrunken log2 fold change” value was 0.0817.

For the sequence RRIRTRPPRLPRPRPRPIPMPRP, the “shrunken log2 fold change” value was -0.38.

RRIRKRPPRLPRPRPRPVLTPRP: the “shrunken log2 fold change” value was determined as 0.342.

Consider RRIRCRPPRLPRPRPRPLKLPRP, for which the “shrunken log2 fold change” value is -0.271.

Regarding RRIRRRPPRLPRPRPRPNCPPRP, the “shrunken log2 fold change” value amounted to 0.039.

Consider RRIRWRPPRLPRPRPRPCDRPRP, for which the “shrunken log2 fold change” value was -0.0349.

On to RRIRQRPPRLPRPRPRPDIQPRP, for which the “shrunken log2 fold change” value was 0.00127.

On to RRIRMRPPRLPRPRPRPRLTPRP, for which the “shrunken log2 fold change” value worked out at 1.13.

Take RRIRYRPPRLPRPRPRPKHMPRP: the “shrunken log2 fold change” value is -0.991.

Regarding RRIRHRPPRLPRPRPRPFTAPRP, the “shrunken log2 fold change” value was -0.559.

RRIRHRPPRLPRPRPRPGLTPRP: the “shrunken log2 fold change” value came to 0.129.

Turning to RRIRSRPPRLPRPRPRPPVIPRP, the “shrunken log2 fold change” value was -0.0672.

RRIRMRPPRLPRPRPRPGSPPRP: the “shrunken log2 fold change” value came to 0.136.

On to RRIRQRPPRLPRPRPRPLLYPRP, for which the “shrunken log2 fold change” value was -0.382.

With RRIRGRPPRLPRPRPRPPMPPRP, the “shrunken log2 fold change” value amounted to 0.659.

RRIRQRPPRLPRPRPRPGIAPRP: the “shrunken log2 fold change” value worked out at 0.719.

Take RRIRGRPPRLPRPRPRPHPSPRP: the “shrunken log2 fold change” value stood at 0.445.

For RRIRKRPPRLPRPRPRPWDRPRP, the “shrunken log2 fold change” value was 0.394.

For RRIRWRPPRLPRPRPRPHWMPRP, the “shrunken log2 fold change” value amounted to 0.289.

Turning to RRIRERPPRLPRPRPRPEVYPRP, the “shrunken log2 fold change” value is -0.0514.

For the sequence RRIRCRPPRLPRPRPRPAPHPRP, the “shrunken log2 fold change” value came to 0.625.

On to RRIRFRPPRLPRPRPRPGHPPRP, for which the “shrunken log2 fold change” value was -0.0866.

Take RRIRGRPPRLPRPRPRPEIMPRP: the “shrunken log2 fold change” value was determined as 1.33.

Turning to RRIRVRPPRLPRPRPRPSQWPRP, the “shrunken log2 fold change” value is 0.0963.

RRIRGRPPRLPRPRPRPYNDPRP: the “shrunken log2 fold change” value was -0.155.

For the sequence RRIRCRPPRLPRPRPRPCNEPRP, the “shrunken log2 fold change” value was -0.514.

Turning to RRIRIRPPRLPRPRPRPLYVPRP, the “shrunken log2 fold change” value was -1.06.

As to RRIRGRPPRLPRPRPRPCRWPRP, the “shrunken log2 fold change” value was 0.611.
